Changes are numbered by the printed parent chain.

The chains are these.
B1: PRT-482 (protein)
chain: MVTSVWTKGVTPPTDFIKGEDVFHAPYKAGQGWYDITKTFNGKDNLLCGAATAGNMLHWWFDQNKDQIEAYLKEHPEKQKIIFNNQELFDLKAAIDTKDDQTNSKLFEYFKEKAFPYLSTKHLGVFPDHVLDMFINGYRLSLTNHGPTPVKEGSKDKRGGIFDAVFTRGVQSKLLTSRHDFKEKTLKEISDLIKQELTEGKALALSHTYANVRINHVINLWGADFDSNGNLEAIYVTDSDTNASIGMKKYFVGVNSAGKVAISAKEIEDDNIGAQVLGLFTLSTGQDIWNQTNLEHHHHHH
B2: PRT-677 (protein)
chain: MQITSVWTKGVIPPTMDQFRYNNYDVFHAPYLPHQGWYDITKTFDGGDNLLCGAATAGNMLHWWFDQNKEYIENYLKKYPEKQKIIFNNQELFDLRKAINTKDSQTNSELFNYFRDKAFGNLSARQKGVMPDLVLDMFINGYYLNLFKTQSTDVNRPNDTRDKRGGFFDHVFGRGDQTKLLTARHDLYNGGLSDISQLIKQELQSGKALAISHTYGNVSSSHVINLWGADFDAEGNLEAIYVTDSDDRSSIGMKKYYVGINASGKVAISAKKIEGENVGAQVLGLFTLSSGKEIWKKLSLEHHHHHH
B3: PRT-455 (protein)
chain: MITSVWTKGVTPPTDFIKGEDVFHAPYKAGQGWYDITKAFDGGDDLLCGAATAGNMLHWWFDQNKDQIEAYLKEHPEKQKINFNGEQMFDVKEAIDTKDDQTNSELFNYFKEKAFPYLSTKHLGVFPDHVLDMFINGYRLSLTNHGPTPVKRQEKDPRGGIFDAVFGRGDQTKLLTSRHDLKNKTLNEISQLIKQELTEGKALALSHTYANVRINHVINLWGADFDAEGNLEAIYVTDSDSNASIGMKKYFVGVNSAGKVAISAKEIEDDNIGAQVLGLFTLSTGQKIWNKTNLEHHHHHH
B4: PRT-517 (protein)
chain: MITSVWTKGVTPPTDFIKGEDVFHAPYKAGQGWYDITKAFDGGDDLLCGAATAGNMLHWWFDQNKEEIEAYLKKHPEKQKIMFGDQELLDVRKVINTKDSQTNSALFNYFKDKAFPNLSARRLGVMPDLVLDMFINGYYLNVYKTQTTDVNRQEQTKDRRGGIFDAVFGRGDQTKLLTERHDLKNKTLKEISDLIKQELTEGKALGLSHTYANVRINHVINLWGADFDSNGNLEAIYVTDSDSNASIGMKKYFVGVNSAGKVAISAKEIKEDNIGAQVLGLFTLSTGQKIWNKTNLEHHHHHH
B5: PRT-682 (protein)
chain: MQITSVWTKGVTPLTPEQFRNNNEDVIHAPYLANQGWYDITKTFNGKDNLLCGAATAGNMLHWWFDQNKTEIEAYLKKHPEKQKIIFNNQELFDLKKAIDTKDSQTNSQLFNYFRDKAFPNLSARQLGVMPDLVLDMFINGYYLNVFKTQSTDVNRPYQDKDKRGGIFDAVFTRGDQTTLLTSRHDLKNKGLNEISDIIKQELTEGKALALSHTYANVSISHVINLWGADFNAEGNLEAIYVTDSDANASIGMKKYFVGVNAHGKVAISAKKIEGENIGAQVLGLFTLSSGKDIWQKLSLEHHHHHH
B6: PRT-496 (protein)
chain: MVTSVWTKGVTPPTDFIKGEDVFHAPYKAGQGWYDITKTFNGKDDLLCGAATAGNMLHWWFDQNKEYIEAYLKKHPEKQKIMFGDQELLDVRKAINTKGSQKNSELFNYFRDKAFPNLSARRLGVMPDLVLDMFINGYYLNVTKTQTTDVNRTYQEKDKRGGIFDAVFTRGDQSKLLTSRHDLKNKGLKEISDLIKQELTEGKALGLSHTYANVRINHVINLWGADFDSDGNLKAIYVTDSDSNASIGMKKYFVGVNSAGKVAISAKEIKEDNIGAQVLGLFTLSTGQDIWNQTNLEHHHHHH
B7: PRT-501 (protein)
chain: B6 chain with T14A, I17T, K18Q, K28V, G30N
B8: PRT-503 (protein)
chain: MITSVWTKGVTPPTDFIKGEDVFHAPYKAGQGWYDITKAFDGGDDLLCGAATAGNMLHWWFDQNKEYIEAYLKKHPEKQKIMFGDQELLDVRKAINTKGSQKNSELFNYFRDKAFPNLSARRLGVMPDLVLDMFINGYYLNVTKTQTTDVNRQEQEKDKRGGIFDAVFGRGDQTKLLTSRHDLKNKGLNEISQLIKQELTEGKALGLSHTYANVRINHVINLWGADFDADGNLEAIYVTDSDSNASIGMKKYFVGVNSAGKVAISAKEIKEDNIGAQVLGLFTLSTGQKIWNKTNLEHHHHHH
B9: PRT-511 (protein)
chain: MITSVWTKGVTPPAKFRKIVDGNIAYYHAPYVANQGWYDITKTFNGKDDLLCGAATAGNMLHWWFDQNKEEIEAYLKKHPEKQKIMFGDQELLDVRKVINTKDSQTNSALFNYFKDKAFPNLSARRLGVMPDLVLDMFINGYYLNVYKTQTTDVNRTYQTKDRRGGIFDAVFTRGDQSKLLTERHDLKNKTLKEISDLIKQELTEGKALGLSHTYANVRINHVINLWGADFDSNGNLEAIYVTDSDSNASIGMKKYFVGVNSAGKVAISAKEIKEDNIGAQVLGLFTLSTGQDIWNQTNLEHHHHHH

This data set deals with pooled human IgG (human IgG1,2,3 and 4).
Consider B1, for which the Enzyme Activity Endpoint Assay: Fab′2 is 261 ng/µL, the Enzyme Activity Endpoint Assay: Fc is 322 ng/µL, the Enzyme Activity Endpoint Assay: IgG was 146 ng/µL and the Enzyme Activity Endpoint Assay: scIgG was determined as 738 ng/µL.
The matching figures for B2: 0 ng/µL, 0 ng/µL, 0 ng/µL and 0 ng/µL.
The matching figures for B3: 872 ng/µL, 416 ng/µL, 0 ng/µL and 333 ng/µL.
On to B4, for which the Enzyme Activity Endpoint Assay (purified): Fab′2 was 0 ng/µL, the Enzyme Activity Endpoint Assay (purified): Fc amounted to 0 ng/µL and the Enzyme Activity Endpoint Assay (purified): scIgG turned out to be 22 ng/µL.
B5 gave an Enzyme Activity Endpoint Assay: Fab′2 of 0 ng/µL, an Enzyme Activity Endpoint Assay: Fc of 0 ng/µL, an Enzyme Activity Endpoint Assay: IgG of 0 ng/µL and an Enzyme Activity Endpoint Assay: scIgG of 0 ng/µL.
B6 registered an Enzyme Activity Endpoint Assay: Fab′2 of 190 ng/µL, an Enzyme Activity Endpoint Assay: Fc of 192 ng/µL, an Enzyme Activity Endpoint Assay: IgG of 0 ng/µL and an Enzyme Activity Endpoint Assay: scIgG of 0 ng/µL.
Consider B7, for which the Enzyme Activity Endpoint Assay (purified): Fab′2 was 0 ng/µL, the Enzyme Activity Endpoint Assay (purified): Fc was found to be 0 ng/µL, the Enzyme Activity Endpoint Assay (purified): IgG stood at 1950 ng/µL and the Enzyme Activity Endpoint Assay (purified): scIgG was 0 ng/µL.
B8 showed an Enzyme Activity Endpoint Assay: Fab′2 of 0 ng/µL, an Enzyme Activity Endpoint Assay: Fc of 0 ng/µL, an Enzyme Activity Endpoint Assay: IgG of 0 ng/µL and an Enzyme Activity Endpoint Assay: scIgG of 0 ng/µL.
Consider B9, for which the Enzyme Activity Endpoint Assay (purified): Fab′2 stood at 935 ng/µL, the Enzyme Activity Endpoint Assay (purified): Fc came to 312 ng/µL, the Enzyme Activity Endpoint Assay (purified): IgG is 62 ng/µL and the Enzyme Activity Endpoint Assay (purified): scIgG was 0 ng/µL.

Source of the values: patent US20250027068.
